In US6756357 (ISTITUTO DI RICHERCHE DI BIOLOGIA MOLECOLARE DI ANGELETTI S …, dated 2004):
Positions count from the first letter of the chain named. Names may count otherwise. Each block holds one binder with its values, some of them ahead of it.

Experiments:
[1] = molecular target: T1, soluble LIFR (LIF receptor) (UniProt P42702 45-833, limits assumed, 35S-labelled in the test of FIG. 1B); experiment: immunoprecipitation of 35S-LIFR with immobilised soluble CNTFRα and variant, SDS-PAGE (FIG. 1B)
T1 construct: also called LIFR marked with 35S
T1 sequence (looked up): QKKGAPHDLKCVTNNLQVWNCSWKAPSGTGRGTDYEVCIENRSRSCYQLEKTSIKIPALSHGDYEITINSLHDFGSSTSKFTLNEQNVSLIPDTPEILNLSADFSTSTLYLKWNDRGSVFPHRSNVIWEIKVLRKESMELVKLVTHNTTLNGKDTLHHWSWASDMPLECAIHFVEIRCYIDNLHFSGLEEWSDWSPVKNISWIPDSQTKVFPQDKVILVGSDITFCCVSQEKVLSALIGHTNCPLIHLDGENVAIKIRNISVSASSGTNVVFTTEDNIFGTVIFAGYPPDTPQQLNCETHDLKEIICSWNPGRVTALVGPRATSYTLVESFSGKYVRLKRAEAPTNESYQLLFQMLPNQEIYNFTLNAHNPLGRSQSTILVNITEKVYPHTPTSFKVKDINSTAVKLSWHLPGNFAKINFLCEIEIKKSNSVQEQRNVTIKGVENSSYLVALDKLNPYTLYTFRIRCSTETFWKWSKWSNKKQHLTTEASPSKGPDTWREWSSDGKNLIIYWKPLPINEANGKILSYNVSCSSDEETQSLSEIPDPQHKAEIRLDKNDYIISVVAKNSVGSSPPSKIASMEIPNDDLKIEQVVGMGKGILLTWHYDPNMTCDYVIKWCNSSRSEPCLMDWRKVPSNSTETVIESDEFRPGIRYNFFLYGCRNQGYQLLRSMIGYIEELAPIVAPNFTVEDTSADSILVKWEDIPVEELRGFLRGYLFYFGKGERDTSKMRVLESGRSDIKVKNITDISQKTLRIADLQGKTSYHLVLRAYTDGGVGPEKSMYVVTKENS
Method: It is known from the literature that the molecules gp130 and LIFR are able to bind independently to the CNTF/CNTFRα complex (11). To assess the functional importance of D1 motif residues the ability of CNTF variants to assemble receptor complexes with the different subunits was assayed. Bonding of the cytokine/CNTFRα complex to gp130 or LIFR marked with ^35S was determined using immunoprecipitation tests as described in the literature (11). The soluble CNTFRα receptor was immobilised on A-Sepharose protein using the monoclonal antibody 9E10 anti-myc and incubated with soluble gp130 or LIFR marked with sulphur ^35S, in the absence or in the presence of different amounts of CNTF variants (1 or 0.1 mg). After washing, the bound material was eluted and subjected to SDS-PAGE.

[2] = molecular target: T2, CNTFRα-myc (soluble extracellular domain of the CNTFRα receptor) (UniProt P26992 23-342); experiment: solid-phase competition with biotinylated CNTF or biotinylated MUT-DH for immobilised CNTFRα-myc, soluble gp130 present
T2 construct: extracellular domain; Captured on plates or protein A-Sepharose through the anti-myc antibody 9E10; also called CNTF receptor α; soluble CNTFRα receptor
T2 sequence (looked up): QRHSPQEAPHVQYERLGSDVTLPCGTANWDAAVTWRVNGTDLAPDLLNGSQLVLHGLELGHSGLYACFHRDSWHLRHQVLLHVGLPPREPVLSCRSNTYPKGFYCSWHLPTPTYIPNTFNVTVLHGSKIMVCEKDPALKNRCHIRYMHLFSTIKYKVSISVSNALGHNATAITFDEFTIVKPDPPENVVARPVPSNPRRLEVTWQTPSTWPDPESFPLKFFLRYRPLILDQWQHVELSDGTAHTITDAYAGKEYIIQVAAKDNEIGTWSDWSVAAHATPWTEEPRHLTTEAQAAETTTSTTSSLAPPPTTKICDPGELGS
Method: The ability of CNTF variants to compete with biotinylated CNTF ([…]) for binding to the extracellular domain of the CNTFRα receptor was determined in a solid-phase binding assay, in the presence of soluble gp130, as described in preceding publications (19). "Microtiter" 96-well polystyrene culture plates were covered with […] of 50 mM sodium carbonate pH 9.5, containing […] of the monoclonal antibody 9E10, which is directed against a c-myc epitope, and the plates are then preserved at 4° C. for one night. The wells were then washed out five times with TBS (50 mM Tris-HCl, pH 7.5, 150 mM NaCl) containing 0.05% Tween and held for 90 minutes at room temperature in TBSMT (50 mM Tris-HCl, 150 mM NaCl, 5% (w/v) lyophilised non-fat milk). All subsequent incubations were carried out at room temperature on a mixer at a speed of 700 rpm, after each incubation period the wells were washed with TBS containing 0.05% Tween (five times each time). The following incubation periods were performed: (1) 2 hours with […] TBSMT containing […] of CNTFRα-myc; (2) 1 hour with […] of TBSMT containing 200 ng of gp130-flag, 5 nM biotinylated CNTF, and the various competitors and (3) 45 minutes with […] of TBS, 5% (w/v) of bovine serum albumin, 0.05% (v/v) Tween 20 containing 0.8 mg/ml avidin conjugated with alkaline phosphatase.
The alkaline phosphatase activity was determined at 37° C. using 1 mg/ml p-nitrophenyl phosphate in 1 M of diethanolamine-HCl, pH 9.8, and absorbancy at 405 nm was measured after 40–60 minutes using a suitable reader. In some experiments the biotinylated MUT-DH variant molecule (0.5 nM) as used as a ligand.

[3] = molecular target: T3, cellular LIF receptor on HepG2 cells (human, UniProt P42702 45-1097); experiment: cell-based or functional assay
T3 sequence (looked up): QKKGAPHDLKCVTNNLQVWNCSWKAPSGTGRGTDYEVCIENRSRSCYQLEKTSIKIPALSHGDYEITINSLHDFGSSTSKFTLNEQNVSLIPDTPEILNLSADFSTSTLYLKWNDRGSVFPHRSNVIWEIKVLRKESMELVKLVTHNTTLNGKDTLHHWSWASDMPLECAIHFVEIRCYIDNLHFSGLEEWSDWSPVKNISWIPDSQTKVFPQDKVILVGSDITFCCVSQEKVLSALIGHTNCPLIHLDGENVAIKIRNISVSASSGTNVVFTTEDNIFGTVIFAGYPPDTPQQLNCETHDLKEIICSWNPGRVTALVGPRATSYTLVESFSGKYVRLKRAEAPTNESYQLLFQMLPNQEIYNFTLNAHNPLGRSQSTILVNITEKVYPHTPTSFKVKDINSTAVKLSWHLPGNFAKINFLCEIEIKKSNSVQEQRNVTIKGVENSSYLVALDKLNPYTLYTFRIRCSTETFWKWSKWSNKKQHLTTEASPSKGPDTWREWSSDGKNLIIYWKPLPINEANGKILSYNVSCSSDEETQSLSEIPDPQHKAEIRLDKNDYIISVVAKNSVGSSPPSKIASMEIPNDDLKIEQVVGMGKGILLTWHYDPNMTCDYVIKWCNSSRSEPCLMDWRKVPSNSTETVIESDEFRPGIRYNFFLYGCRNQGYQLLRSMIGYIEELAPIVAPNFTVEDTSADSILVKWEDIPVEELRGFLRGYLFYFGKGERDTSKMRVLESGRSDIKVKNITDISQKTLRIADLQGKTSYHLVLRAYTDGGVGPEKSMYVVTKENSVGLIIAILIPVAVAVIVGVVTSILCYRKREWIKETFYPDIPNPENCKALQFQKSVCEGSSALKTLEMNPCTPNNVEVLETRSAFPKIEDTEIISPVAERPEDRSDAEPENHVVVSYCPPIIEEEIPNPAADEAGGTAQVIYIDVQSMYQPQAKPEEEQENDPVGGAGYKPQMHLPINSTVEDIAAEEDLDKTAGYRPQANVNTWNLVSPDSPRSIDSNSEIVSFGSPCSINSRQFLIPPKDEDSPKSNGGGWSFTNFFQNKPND

[4] = molecular target: T4, membrane-bound CNTFRα receptor on IMR-32 cells (human, UniProt P26992 23-342); experiment: cell-based or functional assay
T4 sequence (looked up): T2 sequence (looked up)

- binding result [1]: no binding (tested: 1 or 0.1 mg)
- Relative Binding ((IC50 of CNTF)/(IC50 of tested protein)) [2]: 42 ratio
- haptoglobin secretion by HepG2 cells, without soluble CNTFRα (FIG. 2A) [3]: ~20 % with respect to the maximum value
B1: Lys155Ala/MUT-DH (ligand, human, UniProt P26441 1-200, looked up)
chain: MAFTEHSPLTPHRRDLCSRSIWLARKIRSDLTALTESYVKHQGLNKNINLDSADGMPVASTDQWSELTEAERLQENLQAYRTFHVLLARLLEDQQVHFTPTEGDFHQAIHTLLLQVAAFAYQIEELMILLEYKIPRNEADGMPINVGDGGLFEKALWGLKVLQELDHWTVRSIHDLRFISSHQTGIPARGSHYIANNKKM
notes: also called FADH-CNTF; FA/DH

- binding result [1]: no binding (tested: 1 or 0.1 mg)
- Relative Binding ((IC50 of CNTF)/(IC50 of tested protein)) [2]: 51 ratio
- inhibition of Chat activity induced by a subsaturating dose of CNTF in IMR-32 cells (FIG. 4B) [4]: 70 fold excess over CNTF for 50% inhibition
B2: Phe152Ala/Lys155Ala/MUT-DH (ligand, human, UniProt P26441 1-200, looked up)
chain: B1 chain with F152A
notes: also called AADH-CNTF; AA/DH

- binding result [1]: no binding (tested: 1 or 0.1 mg)
- Relative Binding ((IC50 of CNTF)/(IC50 of tested protein)) [2]: 32 ratio
- haptoglobin secretion by HepG2 cells, without soluble CNTFRα (FIG. 2A) [3]: ~20 % with respect to the maximum value
B3: Phe152Ala/MUT-DH (ligand, human, UniProt P26441 1-200, looked up)
chain: B1 chain with F152A, A155K
notes: also called AKDH-CNTF; AK/DH

- Relative Binding ((IC50 of CNTF)/(IC50 of tested protein)) [2]: 41 ratio
B4: MUT-DH (Ser166Asp/Gln167His/CNTF) (ligand, human, UniProt P26441 1-200, looked up)
chain: B1 chain with A155K
notes: also called DH-CNTF; S166D/Q167H/CNTF

- Relative Binding ((IC50 of CNTF)/(IC50 of tested protein)) [2]: 0.9 ratio
B5: Phe152Ala/Lys155Ala/hCNTF (ligand, human, UniProt P26441 1-200, looked up)
chain: B1 chain with F152A, D166S, H167Q
notes: also called Phe152Ala/Lys155Ala/CNTF; AA-CNTF

- Relative Binding ((IC50 of CNTF)/(IC50 of tested protein)) [2]: 1 ratio
B6: human ciliary neurotrophic factor (hCNTF) (ligand, UniProt P26441 1-200, looked up)
chain: B1 chain with A155K, D166S, H167Q
notes: also called wild-type CNTF; wt

- Relative Binding ((IC50 of CNTF)/(IC50 of tested protein)) [2]: 1 ratio
- haptoglobin secretion by HepG2 cells, without soluble CNTFRα (FIG. 2A) [3]: ~20 % with respect to the maximum value
B7: Lys155Ala/CNTF (ligand, human, UniProt P26441 1-200, looked up)
chain: B1 chain with D166S, H167Q
notes: also called FA-CNTF
